Source: article PMC8290593, “PTD-mediated delivery of α-globin chain into Κ-562 erythroleukemia cells and α-thalassemic (HBH) patients’ RBCs ex vivo in the frame of Protein Replacement Therapy” (Journal of Biological Research, 2021)

Biological target: the molecule itself
Assay: SDS-PAGE and Western blot; recombinant protein extracts (bacterial inclusion bodies in 1 M L-Arg pH 8.0, and soluble proteins purified by Ni2+-NTA) on 15% SDS-PAGE, immunoblotted with anti-His.IgG

B1: 10xHis-Xa_(SITE)-α-globin-HA (natural protein)
chain: not shown
notes: A factor Xa site (Xa_(SITE), from pET-16b) lies between the 10xHis tag and α-globin. ~18.7 kDa as printed; also called α-monomer; recombinant α-globin chain; source: E. coli CD43 (DE3), pET-16b; also as bacterial inclusion bodies dissolved in 1 M L-Arg; not shown: 10xHis, N-terminal, kept; HA, C-terminal, kept
B1: binds.
